In patent publication US20050019758A1:

Key:
Assay in all cases: cell-based or functional assay
[1] = molecular target: F protein of RSV clinical isolate B3-447 (Respiratory Syncytial Virus)
[2] = molecular target: F protein of RS Long strain virus (native form, on virus and infected VERO cells) (Respiratory Syncytial Virus) (UniProt P12568)
[3] = molecular target: F protein of RSV clinical isolate A2-626 (Respiratory Syncytial Virus)
[4] = molecular target: F protein of RS 9320 (prototype B1) (Respiratory Syncytial Virus)
[5] = molecular target: F protein of RSV clinical isolate A3-7062 (Respiratory Syncytial Virus)
[6] = molecular target: F protein of RSV clinical isolate B1-6973 (Respiratory Syncytial Virus)
[7] = molecular target: F protein of RSV clinical isolate A4-6652 (Respiratory Syncytial Virus)
[8] = molecular target: F protein of RSV clinical isolate A2-847 (Respiratory Syncytial Virus)
[9] = molecular target: F protein of RSV clinical isolate A1-V1763 (Respiratory Syncytial Virus)
[10] = molecular target: F protein of RSV clinical isolate B2-6556 (Respiratory Syncytial Virus)

Chain of F protein of RS Long strain virus (native form, on virus and infected VERO cells) (Respiratory Syncytial Virus) (P12568 26-574): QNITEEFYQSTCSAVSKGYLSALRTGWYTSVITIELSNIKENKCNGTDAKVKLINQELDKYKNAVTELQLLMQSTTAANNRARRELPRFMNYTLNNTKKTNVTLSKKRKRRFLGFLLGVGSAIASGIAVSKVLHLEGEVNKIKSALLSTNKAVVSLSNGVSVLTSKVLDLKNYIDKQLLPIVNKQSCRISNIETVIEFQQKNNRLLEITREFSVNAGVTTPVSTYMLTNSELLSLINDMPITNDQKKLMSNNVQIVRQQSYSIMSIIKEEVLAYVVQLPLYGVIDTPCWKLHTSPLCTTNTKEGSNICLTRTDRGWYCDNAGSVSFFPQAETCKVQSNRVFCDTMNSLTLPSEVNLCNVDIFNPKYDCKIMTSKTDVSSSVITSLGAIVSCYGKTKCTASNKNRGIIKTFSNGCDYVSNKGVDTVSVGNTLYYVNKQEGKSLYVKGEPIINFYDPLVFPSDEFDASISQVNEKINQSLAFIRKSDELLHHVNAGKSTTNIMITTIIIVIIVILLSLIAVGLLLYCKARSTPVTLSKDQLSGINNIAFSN

Substance SB 209763 (antibody) has a Fusion-Inhibition Titer EC50 [1] of 1.7 µg/mL, a Fusion-Inhibition Titer EC50 [2] of 1.3 µg/mL and a Fusion-Inhibition Titer EC50 [3] of 0.36 µg/mL. For the same substance, the Fusion-Inhibition Titer EC50 [4] was 2.5 µg/mL, the Fusion-Inhibition Titer EC50 [5] was 1.67 µg/mL and the Fusion-Inhibition Titer EC50 [6] was 2.22 µg/mL. The Fusion-Inhibition Titer EC50 [7] was 1.52 µg/mL, the Fusion-Inhibition Titer EC50 [8] was 0.27 µg/mL and the Fusion-Inhibition Titer EC50 [9] was 1.95 µg/mL. For the same substance, the Fusion-Inhibition Titer EC50 [10] was 2.05 µg/mL.
